Reference: US10464978B2, “Peptides and combination of peptides for use in immunotherapy against ovarian cancer and other cancers” (immatics biotechnologies GmbH, priority 2015, dated 2019)

Each substance was assayed against HLA-A*02:01 (Homo sapiens, UniProt P04439, D140Y/D185E/D98H/E176V/E277Q/G131W/G231S/I119V/I121R/I166T/I218V/L300P/L318F/N151K/N90K/P208A/P217A/Q86G/Q94H/R138H/R169H/T345S) (assay: MHC binding assay: UV-ligand exchange with beta2m ELISA (peptide exchange yield)). Settings: binding to HLA-A*02:01.
Summary of the method: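 Values give exchange yield, measured by β2m ELISA: 100-fold-diluted monomers bound to streptavidin plates (1h, 37° C), probed with HRP anti-β2m at 2 ug/ml and read at 450 nm after TMB. Monomers came from UV-triggered cleavage of a photolabile peptide and exchange for the test peptide.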

Question: Which “Peptide exchange (MHC class I binding score, peptide exchange yield)” value (shortened to “Peptide exchange”) does the source give for “66 (FLDENIGGVAV; listed as Homo sapiens) [compound 66]” here?
Answer: “+++” (≥50 = +++)

Question: How did the “Peptide exchange” value turn out when “523 (YQIPRTFTL; listed as Homo sapiens) [compound 523]” was run?
Answer: “++” (≥20% = ++)

Question: “456 (LLIGHLERV; listed as Homo sapiens) [compound 456]” was tested. Which “Peptide exchange” value did it give?
Answer: “+++” (≥50 = +++)

Question: “120 (ALLGIPLTLV; listed as Homo sapiens) [compound 120]” was tested. Which “Peptide exchange” value did it give?
Answer: “+++” (≥50 = +++)

Question: “389 (LLADVTHLL; listed as Homo sapiens) [compound 389]” was tested. Which “Peptide exchange” value did it give?
Answer: “++” (≥20% = ++)

Question: For “320 (KMFEFVEPLL; listed as Homo sapiens) [compound 320]”, which “Peptide exchange” value is on record?
Answer: “++++” (≥75% = ++++)

Question: Which “Peptide exchange” value does the source give for “552 (GLLDLPFRVGV; listed as Homo sapiens) [compound 552]” here?
Answer: “++++” (≥75% = ++++)

Question: “50 (SLSELEALM; listed as Homo sapiens) [compound 50]” was tested. Which “Peptide exchange” value did it give?
Answer: “+++” (≥50 = +++)

Question: How did the “Peptide exchange” value turn out when “103 (TLAEEVVAL; listed as Homo sapiens) [compound 103]” was run?
Answer: “+++” (≥50 = +++)

Question: How did the “Peptide exchange” value turn out when “316 (ILLERLWYV; listed as Homo sapiens) [compound 316]” was run?
Answer: “+++” (≥50 = +++)

Question: Which “Peptide exchange” value does the source give for “49 (YLPAVFEEV; listed as Homo sapiens) [compound 49]” here?
Answer: “+++” (≥50 = +++)

Question: “353 (YLFEMDSSL; listed as Homo sapiens) [compound 353]” was tested. Which “Peptide exchange” value did it give?
Answer: “++” (≥20% = ++)

Question: For “515 (LLQELVLFL; listed as Homo sapiens) [compound 515]”, which “Peptide exchange” value is on record?
Answer: “+++” (≥50 = +++)

Question: Which “Peptide exchange” value does the source give for “405 (ALYDVFLEV; listed as Homo sapiens) [compound 405]” here?
Answer: “++” (≥20% = ++)

Question: With “139 (SVMEVNSGIYRV; listed as Homo sapiens) [compound 139]” as the substance, how does the “Peptide exchange” value read?
Answer: “+++” (≥50 = +++)

Question: Which “Peptide exchange” value does the source give for “145 (FLATSGTLAGI; listed as Homo sapiens) [compound 145]” here?
Answer: “++” (≥20% = ++)

Question: With “506 (KLLGKVETA; listed as Homo sapiens) [compound 506]” as the substance, how does the “Peptide exchange” value read?
Answer: “+++” (≥50 = +++)

Question: For “577 (VMFEDGVLMRL; listed as Homo sapiens) [compound 577]”, which “Peptide exchange” value is on record?
Answer: “+++” (≥50 = +++)

Question: How did the “Peptide exchange” value turn out when “93 (LLQAIKLYL; listed as Homo sapiens) [compound 93]” was run?
Answer: “++” (≥20% = ++)

Question: With “549 (AMLENASDIKL; listed as Homo sapiens) [compound 549]” as the substance, how does the “Peptide exchange” value read?
Answer: “+++” (≥50 = +++)

Question: With “7 (SLVGLLLYL; listed as Homo sapiens) [compound 7]” as the substance, how does the “Peptide exchange” value read?
Answer: “++++” (≥75% = ++++)

Question: How did the “Peptide exchange” value turn out when “190 (FLSSLTETI; listed as Homo sapiens) [compound 190]” was run?
Answer: “+++” (≥50 = +++)

Question: How did the “Peptide exchange” value turn out when “504 (GLSDGNPSL; listed as Homo sapiens) [compound 504]” was run?
Answer: “++” (≥20% = ++)

Question: For “541 (SMLEPVPEL; listed as Homo sapiens) [compound 541]”, which “Peptide exchange” value is on record?
Answer: “+++” (≥50 = +++)

Question: “128 (YLFDDPLSAV; listed as Homo sapiens) [compound 128]” was tested. Which “Peptide exchange” value did it give?
Answer: “++” (≥20% = ++)

Question: For “56 (KLYEGIPVLL; listed as Homo sapiens) [compound 56]”, which “Peptide exchange” value is on record?
Answer: “++++” (≥75% = ++++)

Question: Which “Peptide exchange” value does the source give for “271 (LVYPLELYPA; listed as Homo sapiens) [compound 271]” here?
Answer: “+++” (≥50 = +++)

Question: “381 (FIDEAYVEV; listed as Homo sapiens) [compound 381]” was tested. Which “Peptide exchange” value did it give?
Answer: “++” (≥20% = ++)
